Laboratory results from article PMC6595629, “Continuous Culture Adaptation of Methylobacterium extorquens AM1 and TK 0001 to Very High Methanol Concentrations” (Frontiers in Microbiology, 2019).

B1: MetY (O-acetyl-L-homoserine sulfhydrylase) (Methylorubrum extorquens AM1) (protein)
chain: MTDRQPGFNTLAIHAGATPDPATGARATPIYQTTSFVFDDVDHAASLFGLQAFGNIYTRITNPTNAVLEERIAALEGGTAALAVASGHAAEFLTLHALMQPGDEFIAANKLYGGSINQFNHSYKNFGWQVVWADTDDPDSFERAITPRTKAIFCESIANPGGVITDIAALSVIAKRHNIPLIVDNTMATPYLIKPFEHGADIVVHSATKFLGGHGNSIGGLIVDGGTFQWQGDARYPMLSEPRPEYAGMVLAETFGNFGFAIAVRVLSLRDLGPSLSPFNAFLILNGIETLPLRMQRHSDNALKVATFLKNHANVDWVSYPGLESDRYHALAQRYTPKGAGAVFTFGLKGGYEAGVKLVSNLQLFSHLANIGDTRSLVIHPASTTHRQLTDEQKRAAGAGPEVVRLSIGIEDAQDLIDDLDAALRA
notes: full-length, N-terminal 6xHis tag, modified pET22b(+), E. coli BL21(DE3), purified; printed primers translate to N-terminus … and C-terminus TLARAA

How the values were obtained:
[1] = target: T1, MetY (O-acetyl-L-homoserine sulfhydrylase) (Methylorubrum extorquens, UniProt C5ARH8); experiment: coupled acetic acid assay (NADH oxidation, […] nm); type: biochemical; settings: pH 7.4, room temperature; co-substrate O-acetyl-L-homoserine saturating
T1 construct: full-length, N-terminal 6xHis tag, modified pET22b(+), E. coli BL21(DE3), purified; printed primers translate to N-terminus MHHHHHHSDQTPASVY and C-terminus TLARAA

[2] = substrate: CC(=O)OCC[C@H](N)C(=O)O; experiment: purified protein; type: biochemical, Methylorubrum extorquens; settings: pH 7.4, room temperature, other substrate saturating (sulfide or methanol; which one is not given)

Molecule | Km [1] [µM] | Km [2] [µM] | kcat [2] [s⁻¹] | kcat/Km [2] [M⁻¹ s⁻¹]
S [Sodium sulfide] | 800 ± 200 | – | – | –
B1 | – | 1300 ± 200 | 2.32 ± 0.12 | 1850
